Measured values reported in patent US20100143254A1.

Each substance was assayed against human FcRn (human) (UniProt P55899) (assay: SPR (BIAcore) steady state, immobilized IgG, human FcRn 16-2860 nM, pH 6.0).

| Kd [µM] | Substance |
| --- | --- |
| 2.68 | MEDI-524 (wild type) (antibody) |
| 3.03 | MEDI-524 G385S + Q386I (antibody) |
| 15.9 | MEDI-524 L309N (antibody) |
| 11.3 | MEDI-524 R255V (antibody) |
